Measured values taken from IntAct's records for PubMed 21822214.

B1: B-cell linker protein (Homo sapiens), Q8WV28 (parent)
chain: MDKLNKITVPASQKLRQLQKMVHDIKNNEGGIMNKIKKLKVKAPPSVPRRDYASESPADEEEQWSDDFDSDYENPDEHSDSEMYVMPAEENADDSYEPPPVEQETRPVHPALPFARGEYIDNRSSQRHSPPFSKTLPSKPSWPSEKARLTSTLPALTALQKPQVPPKPKGLLEDEADYVVPVEDNDENYIHPTESSSPPPEKAPMVNRSTKPNSSTPASPPGTASGRNSGAWETKSPPPAAPSPLPRAGKKPTTPLKTTPVASQQNASSVCEEKPIPAERHRGSSHRQEAVQSPVFPPAQKQIHQKPIPLPRFTEGGNPTVDGPLPSFSSNSTISEQEAGVLCKPWYAGACDRKSAEEALHRSNKDGSFLIRKSSGHDSKQPYTLVVFFNKRVYNIPVRFIEATKQYALGRKKNGEEYFGSVAEIIRNHQHSPLVLIDSQNNTKDSTRLKYAVKVS

Variants of: B1
Details: with cd2ap_human CD2AP

Variant | effect of a mutation on the interaction
MDKLNKITVPASQKLRQLQKMVHDIKNNEGGIMNKIKKLKVKAPPSVPARDYASESPADEEEQWSDDFDSDYENPDEHSDSEMYVMPAEENADDSYEPPPVEQETRPVHPALPFARGEYIDNRSSQRHSPPFSKTLPSKPSWPSEKARLTSTLPALTALQKPQVPPKPKGLLEDEADYVVPVEDNDENYIHPTESSSPPPEKAPMVNRSTKPNSSTPASPPGTASGRNSGAWETKSPPPAAPSPLPAAGKKPTTPLKTTPVASQQNASSVCEEKPIPAERHRGSSHRQEAVQSPVFPPAQKQIHQKPIPLPAFTEGGNPTVDGPLPSFSSNSTISEQEAGVLCKPWYAGACDRKSAEEALHRSNKDGSFLIRKSSGHDSKQPYTLVVFFNKRVYNIPVRFIEATKQYALGRKKNGEEYFGSVAEIIRNHQHSPLVLIDSQNNTKDSTRLKYAVKVS [R49A;R247A;R312A] | disrupting interaction
